Assay results: publication PMC10916398

How the values were obtained:
HUα = target: T1, HUα (UniProt P0ACF0); experiment: EMSA
T1 sequence: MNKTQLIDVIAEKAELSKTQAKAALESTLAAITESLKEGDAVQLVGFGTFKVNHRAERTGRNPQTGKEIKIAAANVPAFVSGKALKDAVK

HUβ = target: T2, HUβ (UniProt P0ACF4); experiment: EMSA
T2 sequence: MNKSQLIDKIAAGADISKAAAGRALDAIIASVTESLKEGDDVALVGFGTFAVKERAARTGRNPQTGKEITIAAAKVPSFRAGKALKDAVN

Sequence	binding signal (HUα)	binding signal (HUβ)	binding (HUα)	binding (HUβ)
AAACTGAATTTACGACCACGTAAATGTTTAGGTTGGAAAACACCTTATGAAGTTTACTTCAAAAAA (double strand) [IRR-FAM-NO-IRR]	binds more weakly	binds more weakly	–	–
GGCAGTCGTTGATAGTGGATGGCGGCTTTATGTTGGCGAATCCACAGTTCAACCCAGAATAGCGCAGTGAGGTGCGTGGATATTTCATTGGGGCTGAATTTACAATCCAAGTGCAACAAAAAAAGAAGTACTCATCAACTAGAATATAATTTTGTTTCCACACAAAAACCATTTCCAAATGATGAGTACTTCCTACCGACATCTTACAATAAACGAGCGAGAAAAGATAATGATTTTACTCGCACAGGGC (double strand) [IRL-FAM-Long (ISApl1 promoter)]	–	–	binds	binds
CTTGAATTGTCAAACCAAGTGCAACGATTTTTTGAAGTAAACTTCATAAGGTGTTTTCCAACCTAAACATTTACGTGGTCGTAAATTCAGTTT (double strand) [IRR-FAM-WT]	–	–	binds	binds
CCCATACTGAATATACACTTGAGAGTATTTATAATTTGTATCTTGAATTGTCAAACCAAGTGCAACGATTTTTTGAAGTAAACTTCATAAGGTGTTTTCCAACCTAAACATTTACGTGGTCGTAAATTCAGTTT (double strand) [IRR-FAM-Long]	–	–	binds	binds
